From US20130288275A1, “COMPOSITIONS AND METHODS FOR DETECTING ACETYLATED SUMO PROTEINS” (Georgetown University, priority 2010, published 2013)

System: H1299 cells
Assay: Cell cycle analysis by flow cytometry
Type: cell-based, human
Conditions: H1299 cells infected with adenovirus expressing p53, 72 hours after infection
Procedure: FIG. 5. […] 72 hours after infection, cells were harvested and their cell cycle profile was analyzed (see materials and methods). B-C.
Flow cytometry was performed as described previously by Knights, C. D., et al. J. Cell Biol. 173(4):533-544 (2006).

B1: SUMO-1K37-48R: SUMO-1 mutant with lysines K37-K39 and K45, K46 and K48 substituted with arginine (protein, UniProt P63165 2-97, looked up, variant K37R K39R K45R K46R K48R)
Small ubiquitin-related …: SDQEAKPSTEDLGDKKEGEYIKLKVIGQDSSEIHFRVRMTTHLRRLRESYCQRQGVPMNSLRFLFEGQRIADNHTPKELGMEEEDVIEVYQEQTGG
apoptotic cells: ~2%
